Data on 2 molecules can be found in patent publication US20120114652A1 (AbbVie / Abbott, published 2012).

The target of experiment [1] is T1, R271S stable mutant human PAI-1 (human, UniProt P05121 24-402).
T1 construct: His-tagged, expressed in E. coli
T1 chain: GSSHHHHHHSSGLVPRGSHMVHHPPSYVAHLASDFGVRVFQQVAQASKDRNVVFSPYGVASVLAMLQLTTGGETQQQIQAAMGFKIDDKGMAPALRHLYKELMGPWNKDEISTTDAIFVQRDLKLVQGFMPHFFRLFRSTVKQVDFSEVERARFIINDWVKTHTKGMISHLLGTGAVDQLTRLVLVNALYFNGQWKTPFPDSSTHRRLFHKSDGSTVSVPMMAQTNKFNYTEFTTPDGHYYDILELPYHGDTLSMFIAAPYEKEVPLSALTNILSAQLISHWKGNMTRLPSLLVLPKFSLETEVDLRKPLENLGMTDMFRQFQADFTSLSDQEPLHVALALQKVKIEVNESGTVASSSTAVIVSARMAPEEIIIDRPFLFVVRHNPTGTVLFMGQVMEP
Briefly: SPR BIAcore 2000, Antibody 08 on CM5 chip, PAI-1 protein as analyte.

For experiment [2], the target named is T2, Y220S T267K stable mutant human PAI-1 (human, UniProt P05121 24-402).
T2 construct: His-tagged, expressed in E. coli
T2 chain: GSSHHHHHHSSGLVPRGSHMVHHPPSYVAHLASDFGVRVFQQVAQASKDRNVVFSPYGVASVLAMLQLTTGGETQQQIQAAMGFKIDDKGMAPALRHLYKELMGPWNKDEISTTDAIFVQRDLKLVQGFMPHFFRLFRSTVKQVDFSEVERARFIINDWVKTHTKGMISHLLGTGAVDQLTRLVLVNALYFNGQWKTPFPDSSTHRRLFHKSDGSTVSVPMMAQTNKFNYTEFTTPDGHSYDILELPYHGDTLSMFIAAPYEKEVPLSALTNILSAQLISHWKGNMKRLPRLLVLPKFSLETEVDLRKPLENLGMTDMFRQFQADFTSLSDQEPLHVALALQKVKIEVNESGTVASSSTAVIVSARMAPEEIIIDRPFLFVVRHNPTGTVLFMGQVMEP
The description is as above.

Experiment [3] addresses T3, rat PAI-1 (rat, UniProt P20961 24-402).
T3 construct: bought (US Biological)
T3 sequence: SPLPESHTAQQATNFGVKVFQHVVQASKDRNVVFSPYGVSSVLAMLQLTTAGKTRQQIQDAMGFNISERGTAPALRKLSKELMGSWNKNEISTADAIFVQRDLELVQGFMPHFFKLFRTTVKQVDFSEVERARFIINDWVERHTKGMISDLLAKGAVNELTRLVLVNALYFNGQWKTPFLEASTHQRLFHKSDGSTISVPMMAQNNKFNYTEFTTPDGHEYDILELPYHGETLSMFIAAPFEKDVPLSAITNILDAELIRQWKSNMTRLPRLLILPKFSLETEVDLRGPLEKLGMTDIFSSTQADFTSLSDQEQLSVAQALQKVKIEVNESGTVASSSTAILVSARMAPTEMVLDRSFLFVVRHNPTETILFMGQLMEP
The experiment is described as follows: SPR BIAcore T100, Antibody 08 on CM3 chip, PAI-1 as analyte, 25 C, n = 2. A general note: In SPR one partner is held on a chip, and binding of the other changes the refractive index at the surface.

The target in experiment [4] is T4, glycosylated active human PAI-1 produced by CHO cells (human, UniProt P05121 24-402, N-glycosylated (CHO-produced)).
T4 construct: also called hu glyco; human glycosylated PAI-1
Briefly: SPR BIAcore T100, Antibody 08 on CM3 chip, PAI-1 as analyte, 25 C, n = 5.

Experiment [5] concerns the target T5, cynomolgus PAI-1 (cynomolgus, UniProt P05121 24-402 (human entry), limits assumed).
T5 construct: bacterially derived, made in house; also called cyno PAI-1
The experiment is described as above.

For experiment [6], the target named is T5, cynomolgus PAI-1. Briefly: SPR BIAcore T100, Antibody 08 on CM3 chip, PAI-1 as analyte, 37 C, n = 1.
For experiment [7], the target named is T4, glycosylated active human PAI-1 …. Briefly: SPR BIAcore T100, Antibody 08 on CM3 chip, PAI-1 as analyte, 37 C, n = 2.
For experiment [8], the target named is T6, human PAI-1, active, wild-type, non-glycosylated (E. coli-derived) (human, UniProt P05121 24-402). Briefly: cell-based or functional assay.
For experiment [9], the target named is T5, cynomolgus PAI-1. Briefly: cell-based or functional assay.
In experiment [10] the target is T3, rat PAI-1. Briefly: cell-based or functional assay.
The target of experiment [11] is T6, human PAI-1, active, wild-type, …. Briefly: SPR BIAcore, CAT-1001 amino-linked to CM3 chip, human wild-type PAI-1 as analyte, 1:1 Langmuir.
In experiment [12] the target is PAI-2 (UniProt P05120 1-415, limits assumed). The experiment is described as follows: competition ELISA (DELFIA): PICK167_A01-fgl IgG1 (CAT-1001) coated on the plate, biotinylated human PAI-1, titration of the unlabelled test antigen. For orientation: ELISA stands for enzyme-linked immunosorbent assay.
The target in experiment [13] is T7, PAI-3 (UniProt P05154 26-406, limits assumed).
T7 sequence (looked up): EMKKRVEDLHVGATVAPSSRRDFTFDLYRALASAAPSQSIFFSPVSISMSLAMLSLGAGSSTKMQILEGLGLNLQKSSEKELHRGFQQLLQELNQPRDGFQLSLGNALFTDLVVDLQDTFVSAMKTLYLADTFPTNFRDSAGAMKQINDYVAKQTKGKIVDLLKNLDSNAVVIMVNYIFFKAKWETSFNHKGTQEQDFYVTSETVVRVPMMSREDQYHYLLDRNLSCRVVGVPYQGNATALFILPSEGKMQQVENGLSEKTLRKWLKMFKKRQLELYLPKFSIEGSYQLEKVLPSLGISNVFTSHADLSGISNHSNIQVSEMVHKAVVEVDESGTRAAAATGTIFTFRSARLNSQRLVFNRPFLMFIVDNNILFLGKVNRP
The experiment is described as above.

In experiment [14] the target is antithrombin III (UniProt P01008 33-464). The experiment is described as above.
In experiment [15] the target is T8, α1-antitrypsin (UniProt P01009 25-418).
T8 construct: also called alpha-1-antitrypsin
The experiment is described as above.

For experiment [16], the target named is T9, α1-antichymotrypsin (UniProt P01011 24-423).
T9 sequence (looked up): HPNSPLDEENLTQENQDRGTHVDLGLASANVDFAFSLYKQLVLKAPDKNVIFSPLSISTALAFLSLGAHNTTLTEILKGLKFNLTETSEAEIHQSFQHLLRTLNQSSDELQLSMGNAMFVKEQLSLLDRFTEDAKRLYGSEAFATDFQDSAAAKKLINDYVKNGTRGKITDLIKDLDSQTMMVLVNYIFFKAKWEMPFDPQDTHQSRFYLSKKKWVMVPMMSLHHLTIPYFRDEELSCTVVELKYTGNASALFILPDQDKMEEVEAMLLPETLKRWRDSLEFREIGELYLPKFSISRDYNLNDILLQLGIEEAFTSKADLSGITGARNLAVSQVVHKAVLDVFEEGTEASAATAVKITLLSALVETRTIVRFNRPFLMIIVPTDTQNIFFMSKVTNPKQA
Described as above.

Experiment [17] concerns the target T10, α2-antiplasmin (UniProt P08697 40-491, limits assumed).
T10 sequence (looked up): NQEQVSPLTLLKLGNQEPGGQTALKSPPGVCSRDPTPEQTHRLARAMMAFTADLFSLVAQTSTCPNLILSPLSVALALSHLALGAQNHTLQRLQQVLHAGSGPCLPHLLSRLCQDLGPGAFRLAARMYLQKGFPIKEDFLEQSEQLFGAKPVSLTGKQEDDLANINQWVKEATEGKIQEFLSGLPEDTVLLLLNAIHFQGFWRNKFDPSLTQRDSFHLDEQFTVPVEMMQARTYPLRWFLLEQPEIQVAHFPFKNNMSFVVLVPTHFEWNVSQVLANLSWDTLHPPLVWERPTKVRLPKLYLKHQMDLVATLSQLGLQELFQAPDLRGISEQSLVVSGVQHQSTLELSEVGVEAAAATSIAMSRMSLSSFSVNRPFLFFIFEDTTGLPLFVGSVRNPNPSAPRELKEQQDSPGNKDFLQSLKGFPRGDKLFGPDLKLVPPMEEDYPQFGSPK
Described as above.

B1: Antibody 08 (as coupled to the BIAcore chip; format not stated) (antibody, V domains shown)
VH: QVQLVQSGAEVKKPGSSVKVSCKASGGTFSSYAISWVRQAPGQGLEWMGGIIPTFGTANYAQKFQGRVTITADESTSTAYMELSSLRSEDTAVYYCARERRQWLEGHFDYWGRGTLVTVSS
VL: DIQMTQSPSTLSASVGDRVTITCRASEGIYHNLAWYQQKPGKAPKLLIYKASSLASGVPSRFSGSRSGTEFTLTISSLQPDDFATYYCQQYSNYPLTFGGGTKVEIK
notes: also called candidate antibody (Antibody 08)
B1: the Kd in [1] is 7.4 nM; in experiment [2], 0.14 nM; in experiment [3] it was 0.105 nM; in experiment [4], 0.006 nM; in experiment [5], 0.013 nM; in experiment [6], 0.013 nM. In [7], the Kd came to 0.007 nM.

B2: PICK167_A01-fgl IgG1 (CAT-1001) (antibody, V domains shown)
VH: QVQLVQSGAEVKKPGSSVKVSCKASGGTFSSYAISWVRQAPGQGLEWMGGIIPTFGTANYAQKFQGRVTITADESTSTAYMELSSLRSEDTAVYYCARERRQWLEGHFDYWGRGTLVTVSS
VL: DIQMTQSPSTLSASVGDRVTITCRASEGIYHNLAWYQQKPGKAPKLLIYKASSLASGVPSRFSGSRSGTEFTLTISSLQPDDFATYYCQQYSNYPLTFGGGTKVEIKR
notes: fully germlined variant, made as an IgG1 only; also called PICK67A01-fgl
Take B2: the “IC50, HT1080 plasminogen activation assay” value stood at 13.2 nM in [8] and 22.8 nM in [10]. For the same molecule, the “IC50, PAI-1:tPA functional assay” value in experiment [8] was 1.65 nM; in experiment [9], 0.77 nM; in experiment [10], 3.07 nM. Moreover, the results for the “pIC50, HT1080 plasminogen activation assay” value in [8] and in [10] were 7.87 and 7.64, respectively. The molecule also returned a Kd in experiment [11] of 0.016 nM. Besides, the binding result in experiment [12], in [13], in [14], in [15], in experiment [16] and in experiment [17] was “no binding (tested: log M about -6.3 (about 5e-7 M))” throughout.

A word on the Kd: it is the free concentration of one partner at which half of the binding sites on the other are occupied at equilibrium, for simple one-to-one binding.
